Measured values: patent US20240325486A1 (TUFTS MEDICAL CENTER, published 2024)
Non-standard residues stand in square brackets, D forms with d. No end group written: not given here. Tic = O=C(O)[C@@H]1Cc2ccccc2CN1

How the values were obtained:
[1] = molecular target: CMKLR1 (recombinant, species not given); assay: cell-based or functional assay
[2] = molecular target: CMKLR1 (recombinant, species not given); assay: cell-based or functional assay; remark: listed apart in the source

| Binder | β-Arrestin recruitment, EC50 [1] [nM] | β-Arrestin recruitment, Max Efficacy (% 10 µM s-Stable chem9) [1] [%] | CMKLR1 canonical Gαi signal transduction, EC50 (BSA) (no wash) [2] [nM] | CMKLR1 canonical Gαi signal transduction, EC50 (BSA) (wash × 3) [2] [nM] | CMKLR1 canonical Gαi signal transduction, EC50 (no wash) [2] [nM] | CMKLR1 canonical Gαi signal transduction, EC50 (wash × 3) [2] [nM] |
| --- | --- | --- | --- | --- | --- | --- |
| [dY]FLP[dS]QF[dA][Tic]S (also: C18:1 lipid tail (which C18:1 acid not given here), linker and attachment not given here) [C18:1 lipidated stable chemerin 9 analog] | 17.4 | 160 | 12.7 | 2860 | 4.7 | 26.4 |
| [dY]FLP[dS]QF[dA][Tic]S (also: C18:3 (linolenic acid) lipid tail, linker and attachment not given here) [C18:3 lipidated stable chemerin 9 analog] | 181 | 110 | 73.3 | – | 45.7 | 350 |
| [dY]FLP[dS]QF[dA][Tic]S (also: C10 lipid tail, linker and attachment not given here) [C10 lipidated stable chemerin 9 analog] | 23.1 | 98.3 | 17.8 | – | 17.8 | – |
| [dY]FLP[dS]QF[dA][Tic]S (also: cholesterol lipid tail, linker and attachment not given here) [Cholesterol lipidated stable chemerin 9 analog] | 131 | 149 | 108 | 13500 | 84.5 | 445 |
| [dY]FLP[dS]QF[dA][Tic]S [s-Stable Chem (soluble stable chemerin peptide)] | 31.9 | 100 | 5.1 | – | 35.2 | – |
| [dY]FLP[dS]QF[dA][Tic]S (also: C4 lipid tail, linker and attachment not given here) [C4 lipidated stable chemerin 9 analog] | 223 | 89.7 | 11 | – | 79.3 | – |

Second part, the binder after the results:

| β-Arrestin recruitment, EC50 [1] [nM] | β-Arrestin recruitment, Max Efficacy (% 10 µM s-Stable chem9) [1] [%] | CMKLR1 canonical Gαi signal transduction, EC50 (BSA) (no wash) [2] [nM] | CMKLR1 canonical Gαi signal transduction, EC50 (BSA) (wash × 3) [2] [nM] | CMKLR1 canonical Gαi signal transduction, EC50 (no wash) [2] [nM] | CMKLR1 canonical Gαi signal transduction, EC50 (wash × 3) [2] [nM] | Binder |
| --- | --- | --- | --- | --- | --- | --- |
| 3.23 | 165 | 6.4 | 520 | 2.7 | 18.6 | [dY]FLP[dS]QF[dA][Tic]S (also: C16 (palmitic acid) lipid tail, linker and attachment not given here) [C16 lipidated stable chemerin 9 analog] |
| 51.9 | 124 | 26.2 | 1820 | 9.3 | 100 | [dY]FLP[dS]QF[dA][Tic]S (also: C14:1 lipid tail, linker and attachment not given here) [C14:1 lipidated stable chemerin 9 analog] |
| 80.8 | 154 | 29.5 | 3140 | 12 | 42.2 | [dY]FLP[dS]QF[dA][Tic]S (also: C16:1 lipid tail, linker and attachment not given here) [C16:1 lipidated stable chemerin 9 analog] |
